Data reported in the supplement of paper PMC9112550, “Optimization of the antimicrobial peptide Bac7 by deep mutational scanning” (BMC Biology, 2022).

Test system: Escherichia coli TOP10
Assay: shrunken log2 fold change of peptide-encoding DNA abundance (4.5 h post-induction vs induction); higher = less antimicrobial activity (less host growth inhibition)
Conditions: time post-induction: 4.5 h; library: site-saturation at positions 5, 18, 19, 20
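Further: peptides expressed intracellularly from a pBAD plasmid library in pooled LB shake-flask culture, induced with 0.3% L-arabinose, DNA abundance read by NGS, three biological replicates, DESeq2 with apeglm shrinkage.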

| Sequence | shrunken log2 fold change |
| --- | --- |
| RRIRLRPPRLPRPRPRPVEWPRP | -0.228 |
| RRIRGRPPRLPRPRPRPHFVPRP | 0.466 |
| RRIRCRPPRLPRPRPRPDWYPRP | -0.241 |
| RRIRARPPRLPRPRPRPGNKPRP | -0.186 |
| RRIRQRPPRLPRPRPRPVAMPRP | 0.0794 |
| RRIRWRPPRLPRPRPRPWERPRP | 0.142 |
| RRIRWRPPRLPRPRPRPSSAPRP | 0.443 |
| RRIRTRPPRLPRPRPRPECRPRP | 0.569 |
| RRIRNRPPRLPRPRPRPVILPRP | -0.61 |
| RRIRHRPPRLPRPRPRPLATPRP | -0.0931 |
| RRIRIRPPRLPRPRPRPIYNPRP | -1.18 |
| RRIRFRPPRLPRPRPRPAENPRP | -0.134 |
| RRIRHRPPRLPRPRPRPCRLPRP | 0.0253 |
| RRIRERPPRLPRPRPRPWTLPRP | -0.407 |
| RRIRRRPPRLPRPRPRPYHSPRP | -0.017 |
| RRIRSRPPRLPRPRPRPFYPPRP | -0.259 |
| RRIRVRPPRLPRPRPRPVHIPRP | -0.174 |
| RRIRNRPPRLPRPRPRPRDKPRP | -0.332 |
| RRIRGRPPRLPRPRPRPWDKPRP | 0.067 |
| RRIRMRPPRLPRPRPRPDFIPRP | -0.0216 |
| RRIRCRPPRLPRPRPRPMTVPRP | -0.0302 |
| RRIRRRPPRLPRPRPRPPMDPRP | 0.385 |

| Sequence | shrunken log2 fold change |
| --- | --- |
| RRIRMRPPRLPRPRPRPHFHPRP | -0.376 |
| RRIRWRPPRLPRPRPRPIQGPRP | 0.265 |
| RRIRARPPRLPRPRPRPWYSPRP | -0.43 |
| RRIRTRPPRLPRPRPRPIKNPRP | -0.185 |
| RRIRYRPPRLPRPRPRPCNHPRP | -0.213 |
| RRIRQRPPRLPRPRPRPPHLPRP | 0.205 |
| RRIRGRPPRLPRPRPRPEAWPRP | 1.91 |
| RRIRQRPPRLPRPRPRPDSHPRP | -0.065 |
| RRIRDRPPRLPRPRPRPHQPPRP | -0.017 |
| RRIRQRPPRLPRPRPRPKRWPRP | 0.0413 |
| RRIRARPPRLPRPRPRPQIPPRP | -0.346 |
| RRIRIRPPRLPRPRPRPFFGPRP | -0.00653 |
| RRIRFRPPRLPRPRPRPNSEPRP | -0.406 |
| RRIRCRPPRLPRPRPRPHCLPRP | -1.4 |
| RRIRPRPPRLPRPRPRPMRIPRP | 0.189 |
| RRIRERPPRLPRPRPRPKIWPRP | 0.0407 |
| RRIRKRPPRLPRPRPRPIIIPRP | -0.104 |
| RRIRTRPPRLPRPRPRPFYLPRP | -0.522 |
| RRIRHRPPRLPRPRPRPHNSPRP | -0.692 |
| RRIRSRPPRLPRPRPRPRDIPRP | -0.248 |
| RRIRNRPPRLPRPRPRPAPCPRP | 0.0656 |
| RRIRVRPPRLPRPRPRPRPHPRP | 0.351 |

| Sequence | shrunken log2 fold change |
| --- | --- |
| RRIRLRPPRLPRPRPRPGNSPRP | -0.0133 |
| RRIRWRPPRLPRPRPRPLANPRP | 0.552 |
| RRIRQRPPRLPRPRPRPNMPPRP | -0.634 |
| RRIRRRPPRLPRPRPRPIVFPRP | 0.00406 |
| RRIRGRPPRLPRPRPRPRIPPRP | 0.424 |
| RRIRPRPPRLPRPRPRPSSWPRP | 0.104 |
| RRIRCRPPRLPRPRPRPAINPRP | -0.606 |
| RRIRCRPPRLPRPRPRPQLLPRP | -0.23 |
| RRIRVRPPRLPRPRPRPKSWPRP | 0.224 |
| RRIRGRPPRLPRPRPRPMKAPRP | 0.231 |
| RRIRYRPPRLPRPRPRPRKSPRP | 0.117 |
| RRIRIRPPRLPRPRPRPGLTPRP | -0.0421 |
| RRIRRRPPRLPRPRPRPIHWPRP | -0.0227 |
| RRIRYRPPRLPRPRPRPSDDPRP | -0.917 |
| RRIRCRPPRLPRPRPRPSFYPRP | -0.793 |
| RRIRHRPPRLPRPRPRPILLPRP | -0.211 |
| RRIRWRPPRLPRPRPRPWTEPRP | -0.301 |
| RRIRCRPPRLPRPRPRPLVFPRP | -0.317 |
| RRIRYRPPRLPRPRPRPVMMPRP | -0.891 |
| RRIRHRPPRLPRPRPRPSRLPRP | 0.39 |
| RRIRVRPPRLPRPRPRPGNSPRP | 0.0126 |
| RRIRDRPPRLPRPRPRPIGWPRP | -0.0185 |

| Sequence | shrunken log2 fold change |
| --- | --- |
| RRIRQRPPRLPRPRPRPNQMPRP | -0.0557 |
| RRIRKRPPRLPRPRPRPGYHPRP | 0.0924 |
| RRIRFRPPRLPRPRPRPIDRPRP | -0.0144 |
| RRIRCRPPRLPRPRPRPPQAPRP | 0.735 |
| RRIRSRPPRLPRPRPRPDMKPRP | -0.43 |
| RRIRRRPPRLPRPRPRPLDYPRP | -0.324 |
| RRIRKRPPRLPRPRPRPIVNPRP | 0.219 |
| RRIRFRPPRLPRPRPRPLPHPRP | -0.0994 |
| RRIRMRPPRLPRPRPRPMSEPRP | 0.102 |
| RRIRNRPPRLPRPRPRPEIVPRP | 0.106 |
| RRIRLRPPRLPRPRPRPIYNPRP | -0.989 |
| RRIRPRPPRLPRPRPRPGLLPRP | 0.217 |
| RRIRMRPPRLPRPRPRPIAVPRP | -0.015 |
| RRIRIRPPRLPRPRPRPDHWPRP | 0.0629 |
| RRIRSRPPRLPRPRPRPWYNPRP | -0.502 |
| RRIRTRPPRLPRPRPRPCKQPRP | -0.254 |
| RRIRFRPPRLPRPRPRPVHGPRP | 0.284 |
| RRIRVRPPRLPRPRPRPCRKPRP | 0.068 |
| RRIRKRPPRLPRPRPRPPLPPRP | 0.74 |
| RRIRMRPPRLPRPRPRPASVPRP | 1.67 |
| RRIRTRPPRLPRPRPRPHQVPRP | -0.0174 |
| RRIRWRPPRLPRPRPRPAQYPRP | 0.122 |

| Sequence | shrunken log2 fold change |
| --- | --- |
| RRIRYRPPRLPRPRPRPWTDPRP | -0.038 |
| RRIRMRPPRLPRPRPRPHADPRP | 2 |
| RRIRKRPPRLPRPRPRPQTSPRP | -0.122 |
| RRIRHRPPRLPRPRPRPVCCPRP | -0.0885 |
| RRIRNRPPRLPRPRPRPDRPPRP | -0.151 |
| RRIRKRPPRLPRPRPRPYWLPRP | -0.229 |
| RRIRARPPRLPRPRPRPRKYPRP | 0.0773 |
| RRIRKRPPRLPRPRPRPELKPRP | 0.978 |
| RRIRMRPPRLPRPRPRPCHYPRP | -0.112 |
| RRIRCRPPRLPRPRPRPGTGPRP | 0.119 |
| RRIRNRPPRLPRPRPRPMKPPRP | -0.00018 |
| RRIRRRPPRLPRPRPRPDLKPRP | 0.162 |
| RRIRKRPPRLPRPRPRPNHWPRP | 0.0915 |
| RRIRWRPPRLPRPRPRPREEPRP | 0.55 |
| RRIRCRPPRLPRPRPRPQSSPRP | -0.103 |
| RRIRHRPPRLPRPRPRPILEPRP | 0.077 |
| RRIRARPPRLPRPRPRPTNPPRP | 0.288 |
| RRIRQRPPRLPRPRPRPGWMPRP | -0.115 |
| RRIRYRPPRLPRPRPRPLYNPRP | -1.11 |
| RRIRIRPPRLPRPRPRPFNMPRP | -2.55 |
| RRIRTRPPRLPRPRPRPDQCPRP | 0.0333 |
